Test results as given in patent US20250188193A1.
Where a chain is given by its changes, count along the chain named. Blank lines part the entries; values can stand above or below the binder they belong to.

How the values were obtained:
[1] = biological target: Rituximab G2 (galactosylated afucosylated glycoform); assay: SPR; drawn table, KD (G2)
[2] = biological target: Rituximab G2 (galactosylated afucosylated glycoform); assay: SPR (Biacore T200), 1:1 Langmuir kinetic fit
[3] = biological target: Rituximab G2F (galactosylated fucosylated glycoform); assay: SPR (Biacore T200), 1:1 Langmuir kinetic fit
[4] = biological target: Rituximab G2 (galactosylated afucosylated glycoform); assay: SPR, 1:1 Langmuir global fit, 1024 to 32 nM

Kd [1]: 4.74 µM
B1: E2 (VHH)
VHH: QVQLQESGGGLVQAGGSLRLSCAASSYISRYHTMGWYRQAPGKERSFVAGITWGGLTYYADSVKGRFTVSRDNAKNTVYLQMNSLKPEDTAVYYCAVDGGTRADPYHYYWGQGTQVTVSS

Kd [1]: 2.48 µM
B2: E4 (VHH)
VHH: B1 VHH with S26P, S46E, G50A, L56S, V69I, R102Y

Kd [2]: 0.323 µM
Kd [3]: 1.9 µM
Kd [4]: 0.353 µM
B3: D3 (VHH, not shown: small tags and cut ends)
VHH: QVQLQESGGGLVQAGGSLRLSCAASGNISADRYMGWYRQAPGKEREFVAAIGYGGTTYYADSVKGRFTISRDNAKNTVYLQMNSLKPEDTAVYYCAVVDGAHSRHRYWGQGTQVTVSS
